Data on three substances can be found in PMC2987827.

What all share (test): cross-linking; 293T cells coexpressing FLAG- and HA-tagged Gag and V1B-MS2 viral RNA treated with 1 mM EGS, 30 min, room temperature; membrane flotation; cytoplasmic fraction (10th fraction) analysed by anti-FLAG western blot
Background: Immunoblotting shows a protein as a band on a membrane.

The target of test [1] is HIV-1 G2A-Gag, FLAG- and HA-tagged (HIV-1).
Test [2] has as its target HIV-1 Gag-delCTD, FLAG- and HA-tagged (lacking the C-terminal domain of capsid) (HIV-1).
The target in test [3] is HIV-1 Gag, FLAG- and HA-tagged (wild type) (HIV-1).

What is called stoichiometry N is the number of molecules, sites or subunits per partner or assembly. “HIV-1 G2A-Gag, FLAG- and HA-tagged (natural protein)” returned a stoichiometry N in test [1] of 2.
For “HIV-1 Gag-delCTD, FLAG- and HA-tagged (lacking the C-terminal domain of capsid) (natural protein)”, in test [2], the stoichiometry N was found to be 2.
Turning to “HIV-1 Gag, FLAG- and HA-tagged (wild type) (natural protein)”, the stoichiometry N in test [3] worked out at 2.
